Laboratory results reported in paper PMC3210151 (2011).

B1: RON Sema (Glu25-Gly524) (domain or fragment)
chain: EDWQCPRTPYAASRDFDVKYVVPSFSAGGLVQAMVTYEGDRNESAVFVAIRNRLHVLGPDLKSVQSLATGPAGDPGCQTCAACGPGPHGPPGDTDTKVLVLDPALPALVSCGSSLQGRCFLHDLEPQGTAVHLAAPACLFSAHHNRPDDCPDCVASPLGTRVTVVEQGQASYFYVASSLDAAVAASFSPRSVSIRRLKADASGFAPGFVALSVLPKHLVSYSIEYVHSFHTGAFVYFLTVQPASVTDDPSALHTRLARLSATEPELGDYRELVLDCRFAPKLVPRGSPEGGQPYPVLRVAHSAPVGAQLATELSIAEGQEVLFGVFVTGKDGGPGVGPNSVVCAFPIDLLDTLIDEGVERCCESPVHPGLRRGLDFFQSPSFCPNPPGLEALSPNTSCRHFPLLVSSSFSRVDLFNGLLGPVQVTALYVTRLDNVTVAHMGTMDGRILQVELVRSLNYLLYVSNFSLGDSGQPVQRDVSRLGDHLLFASGDQVFQVPIQG
B2: RON Sema-PSI-IPT1–4 (Glu25-Ser956) (domain or fragment)
chain: EDWQCPRTPYAASRDFDVKYVVPSFSAGGLVQAMVTYEGDRNESAVFVAIRNRLHVLGPDLKSVQSLATGPAGDPGCQTCAACGPGPHGPPGDTDTKVLVLDPALPALVSCGSSLQGRCFLHDLEPQGTAVHLAAPACLFSAHHNRPDDCPDCVASPLGTRVTVVEQGQASYFYVASSLDAAVAASFSPRSVSIRRLKADASGFAPGFVALSVLPKHLVSYSIEYVHSFHTGAFVYFLTVQPASVTDDPSALHTRLARLSATEPELGDYRELVLDCRFAPKLVPRGSPEGGQPYPVLRVAHSAPVGAQLATELSIAEGQEVLFGVFVTGKDGGPGVGPNSVVCAFPIDLLDTLIDEGVERCCESPVHPGLRRGLDFFQSPSFCPNPPGLEALSPNTSCRHFPLLVSSSFSRVDLFNGLLGPVQVTALYVTRLDNVTVAHMGTMDGRILQVELVRSLNYLLYVSNFSLGDSGQPVQRDVSRLGDHLLFASGDQVFQVPIQGPGCRHFLTCGRCLRAWHFMGCGWCGNMCGQQKECPGSWQQDHCPPKLTEFHPHSGPLRGSTRLTLCGSNFYLHPSGLVPEGTHQVTVGQSPCRPLPKDSSKLRPVPRKDFVEEFECELEPLGTQAVGPTNVSLTVTNMPPGKHFRVDGTSVLRGFSFMEPVLIAVQPLFGPRAGGTCLTLEGQSLSVGTSRAVLVNGTECLLARVSEGQLLCATPPGATVASVPLSLQVGGAQVPGSWTFQYREDPVVLSISPNCGYINSHITICGQHLTSAWHLVLSFHDGLRAVESRCERQLPEQQLCRLPEYVVRDPQGWVAGNLSARGDGAAGFTLPGFRFLPPPHPPSANLVPLKPEEHAIKFEYIGLGAVADCVGINVTVGGESCQHEFRGDMVVCPLPPSLQLGQDGAPLQVCVDGECHILGRVVRPGPDGVPQS

Key:
[1] = target: RON Sema (Glu25-Gly524) (human) (UniProt Q04912); experiment: SPR; same sensorgrams as the kinetic analysis (RON constructs amine-coupled to CM5, MSPβ as analyte, 10 mM Na-HEPES pH 8.0, 150 mM NaCl, 0.005% P20, 25°C); Kd from an equilibrium model
[2] = target: RON Sema-PSI (Glu25-Pro568) (human) (UniProt Q04912); experiment: as above
[3] = target: RON Sema-PSI-IPT1 (Glu25-Glu683) (human) (UniProt Q04912); experiment: as above
[4] = target: RON Sema-PSI-IPT1–4 (Glu25-Ser956) (human) (UniProt Q04912); experiment: as above
[5] = target: RON Sema (Glu25-Gly524) (human) (UniProt Q04912); experiment: SPR; Biacore T100; RON constructs amine-coupled to a CM5 chip; MSPβ as analyte (wild type 5-500 nM, R689C 32-2000 nM); 10 mM Na-HEPES pH 8.0, 150 mM NaCl, 0.005% P20, 25°C; global fit to a 1:1 Langmuir kinetic model
[6] = target: RON Sema-PSI (Glu25-Pro568) (human) (UniProt Q04912); experiment: as above
[7] = target: RON Sema-PSI-IPT1 (Glu25-Glu683) (human) (UniProt Q04912); experiment: as above
[8] = target: RON Sema-PSI-IPT1–4 (Glu25-Ser956) (human) (UniProt Q04912); experiment: as above
RON constructs = experiment: SPR; dimeric MSPβ R689C on RON constructs; method and conditions not told in the sentence (SPR is the paper's only binding method)
[9] = target: wild type MSPβ (macrophage stimulating protein β-chain with the adjoining 19 residues of the α-chain, … (human, UniProt P26927 465-711, C672S)); experiment: SPR; solution competition
[10] = target: MSPβ R689C (Phe465-Gly711, C672S, R689C) (human, UniProt P26927 465-711, C672S | R689C); experiment: SPR; solution competition

| Molecule | Kd [1] [nM] | Kd [2] [nM] | Kd [3] [nM] | Kd [4] [nM] | Kd [5] [nM] | koff [5] [s⁻¹] | kon [5] [M⁻¹ s⁻¹] | Kd [6] [nM] | koff [6] [s⁻¹] | kon [6] [M⁻¹ s⁻¹] | Kd [7] [nM] | koff [7] [s⁻¹] | kon [7] [M⁻¹ s⁻¹] | Kd [8] [nM] | koff [8] [s⁻¹] | kon [8] [M⁻¹ s⁻¹] | Kd (RON constructs) [nM] | Kd [9] [nM] | Kd [10] [nM] |
| --- | --- | --- | --- | --- | --- | --- | --- | --- | --- | --- | --- | --- | --- | --- | --- | --- | --- | --- | --- |
| MSPβ R689C (Phe465-Gly711, C672S, R689C) (from UniProt P26927 465-711) (domain or fragment) | 139 | 244 | 154 | 158 | 170 | 0.081 | 480000 | 233 | 0.062 | 270000 | 148 | 0.129 | 870000 | 157 | 0.055 | 350000 | – | – | – |
| dimeric MSPβ R689C (from UniProt P26927 465-711) (complex) | – | – | – | – | – | – | – | – | – | – | – | – | – | – | – | – | 3.7 to 4.9 | – | – |
| wild type MSPβ (macrophage stimulating protein β-chain with the adjoining 19 residues of the α-chain, Phe465-Gly711, C672S) (from UniProt P26927 465-711) (domain or fragment) | 16.4 | 32 | 17.8 | 22.6 | 13.3 | 0.031 | 2.31e+06 | 21.2 | 0.028 | 1.33e+06 | 15.1 | 0.027 | 1.76e+06 | 13.5 | 0.023 | 1.69e+06 | – | – | – |
| B1 | – | – | – | – | – | – | – | – | – | – | – | – | – | – | – | – | – | 17.6 | – |
| B2 | – | – | – | – | – | – | – | – | – | – | – | – | – | – | – | – | – | 52.8 | 381 |
